Source: publication PMC9826845, “Characterization of the Escherichia coli XPD/Rad3 iron-sulfur helicase YoaA in complex with the DNA polymerase III clamp loader subunit chi (χ)”

B1: B3 forked duplex (S4 + S5) (dsDNA)
DNA 1: TTTTTTTTTTTTTTTTTTTTTTTTTTTTTTTTTTTATAAAAGGGACATTCTGGCC
DNA 2: GGCCAGAATGTCCCTTTTATTACTGGTCGT
modifications: fluorescein at T15 of strand 2 (printed F, written as T)
B2: B2 5' overhang duplex (S18 + S5) (dsDNA)
DNA 1: B1 DNA 1
DNA 2: GGCCAGAATGTCCCTTTTAT
modifications: fluorescein at T15 of strand 2 (printed F, written as T), 6 nt from junction

Biological target: YoaA (6xHis);chi (DNA polymerase III clamp loader subunit) (Escherichia coli;Escherichia coli, UniProt P76257;P28905 1-636;1-147, |)
Assay: fluorescein quenching titration; 0.5 mM ATPgS; rough estimate, no saturation; assay buffer B (composition not in the material) with 0.5 mM ATPgS, 50 nM DNA, YoaA-chi 0.1 nM-2 uM (Kd titration) or 1 uM; temperature and pH not given
Conditions: protein: recombinant;recombinant, 6xHis (His-YoaA);, copies: 1;1, label: fluorescein, 20 bp, other end blunt

Sequence of YoaA (6xHis);chi (DNA polymerase III clamp loader subunit) (P76257 whole entry, chain 1 of 2): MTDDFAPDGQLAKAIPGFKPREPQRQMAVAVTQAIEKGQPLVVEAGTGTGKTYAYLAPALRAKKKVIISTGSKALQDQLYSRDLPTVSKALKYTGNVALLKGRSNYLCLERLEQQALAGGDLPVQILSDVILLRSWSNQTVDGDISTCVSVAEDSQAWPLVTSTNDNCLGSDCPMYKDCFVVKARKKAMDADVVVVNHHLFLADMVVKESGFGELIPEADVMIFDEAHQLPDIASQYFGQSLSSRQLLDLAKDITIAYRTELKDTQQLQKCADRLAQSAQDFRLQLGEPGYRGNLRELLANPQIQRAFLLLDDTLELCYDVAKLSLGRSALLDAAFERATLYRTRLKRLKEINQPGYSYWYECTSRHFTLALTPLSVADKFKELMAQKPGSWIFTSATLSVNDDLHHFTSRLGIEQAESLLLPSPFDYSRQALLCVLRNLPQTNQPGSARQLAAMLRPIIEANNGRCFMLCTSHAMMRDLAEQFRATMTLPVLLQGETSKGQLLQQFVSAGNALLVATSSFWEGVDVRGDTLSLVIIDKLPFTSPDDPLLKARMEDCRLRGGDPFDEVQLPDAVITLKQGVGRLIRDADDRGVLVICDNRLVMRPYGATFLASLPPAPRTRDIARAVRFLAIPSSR
Sequence of YoaA (6xHis);chi (DNA polymerase III clamp loader subunit) (P28905 whole entry, chain 2 of 2): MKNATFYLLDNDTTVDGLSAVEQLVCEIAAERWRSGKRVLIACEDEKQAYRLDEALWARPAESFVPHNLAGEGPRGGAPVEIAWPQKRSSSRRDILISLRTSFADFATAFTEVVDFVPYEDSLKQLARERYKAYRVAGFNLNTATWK

Binder | Kd (fork: 35 nt 5' overhang on strand 1, 10 nt 3' overhang on strand 2) | Kd (35 nt 5' overhang on strand 1)
B1 | ~328 nM | –
B2 | – | ~350 nM
